# Measurements taken from article PMC12577854, “CsUGT89A2 enhances tea plant resistance to Toxoptera aurantia by mediating flavonoid glycosides biosynthesis” (Horticulture Research, 2025).
# Key:
# Experiment in all cases: HPLC assay of 7-O-glucoside formation
# Format in all cases: biochemical, Camellia sinensis
# Conditions in all cases: 2.5 mM UDP-glucose, pH 8.0, 40°C
# [1] = test system: T1, O=c1c(O)c(-c2ccc(O)c(O)c2)oc2cc(O)cc(O)c12
# T1 construct: Ni-TED purified (methods say amylose resin)
# [2] = test system: T2, O=c1c(O)c(-c2ccc(O)cc2)oc2cc(O)cc(O)c12
# T2 construct: Ni-TED purified (methods say amylose resin)
# [3] = test system: T3, O=c1cc(-c2ccc(O)c(O)c2)oc2cc(O)cc(O)c12
# T3 construct: Ni-TED purified (methods say amylose resin)
# [4] = test system: T4, O=c1cc(-c2ccc(O)cc2)oc2cc(O)cc(O)c12
# T4 construct: Ni-TED purified (methods say amylose resin)
substance,measurement,setting,value
"rCsUGT89A2 (CsUGT89A2, LOC114303213) (Camellia sinensis var. sinensis)",Km,[1],106.0 µM
same,Km,[2],164.5 µM
same,Km,[3],76.4 µM
same,Km,[4],46.3 µM
